Experimental data reported in US20260116956A1, “ANTIBODY BASED TREATMENT TO REDUCE GUT BACTERIAL GLYCAN AND ASSOCIATED BACTERIA” (priority 2022, published 2026).
Substitutions are numbered along the chain they refer to. Like-named read-outs stand apart in the source and are kept apart here.

B1: mAb 33.2.2: murine monoclonal anti-R. gnavus lipoglycan antibody; VH SEQ ID NO: 4, VL SEQ ID NO: 9 (antibody, V domains shown)
VH: EVQLQESGPSLVKPSQTLSLTCSVTGDSITSGYWNWIRKFPGNKLEYLGYINYSGSTYYNPSLRSRISITRDTSKNQYYLQLNAVTTEDTATYYCARYYYHDDSYAMDNWGQGTSVTVSS
VL: DIQMNQSPSSLSASLGDTITITCHASQNINVWLSWFQQKPGNIPKLLIYKASNLHTGVPSRFSGTGSGTGFTLTISSLQPEDIATYYCQQGQSYPLTFGAGTKLELK
B2: mAb 34.2.2: murine monoclonal anti-R. gnavus lipoglycan antibody; VH SEQ ID NO: 13, VL SEQ ID NO: 15 (antibody, V domains shown)
VH: B1 VH with L48M, S56T, R64K, A84S, H101Y, D103S, N109Y
VL: B1 VL with T65S

Key:
[1] = tested on: intestinal permeability of RG strain colonized mice; details: 0.15 mg/ml in drinking water, 10 days
Protocol: For each group mean+/−standard deviation (SD) (FIG. 9A). […] For the bottom panels, significance was tested by paired t test. *p<0.05 was considered statistically significant.
In vivo assay of intestinal permeability. To assess intestinal permeability, after a 4-hours fasting from food and water, mice were orally gavaged with 4,000-Da fluorescein (FITC)-dextran (FD4) (Sigma-Aldrich, St. Louis, MO) (250 mg/kg body weight) in doses of 200 μl, and blood was collected 3 hours later. The concentration of the FD4 was determined using a fluorimeter with an excitation wavelength of 490 nm and an emission wavelength of 530 nm. To assess concentration, FD4 in serum was then serially diluted to establish a standard curve.
Leaky gut recovery studies. Zonulin antagonist, larazotide acetate (known as AT-1001, or INN-202), was purchased from BOC Sciences, NY. Individual neonatally-colonized littermates from SPF mice, colonized with different RG strains, were retested after FD4 challenge, and those with abnormal levels then each received 0.15 mg/ml of the zonulin antagonist in drinking water, which was refreshed every day, for 10 consecutive days. After 24 hours rest, intestinal permeability was then retested.

[2] = tested on: extract of the RG1 type strain (ATCC29149); assay: Direct binding ELISA, RG1 bacterial extract; design: species or system Ruminococcus gnavus; details: extract coated on ELISA plate; strain lacks the lipoglycan
Protocol: (§1) In this assay, LG or nuclease-treated RG strain extracts were precoated overnight onto the well, then after blocking with bovine serum albumin, the mAbs, or isotype control at 1 μg/ml were incubated for 4 hours, then washed and developed (see below-described methods) (FIG. 15A). Immunoblot with mAb 33.2.3 (FIG. 15B) and immunoblot with 34.2.2 mAb (FIG. 15C), detect antigenically related LG oligobands in extracts of R. gnavus strains isolated from active Lupus nephritis strains. In each panel is shown samples of purified lipoglycan from the Lupus S47-18 strain, and the RG2 strain of R. gnavus. […]
(§2) Assays of antigen-reactive IgG antibodies. […] For ELISA bound IgG antibodies were detected with Fc-gamma-specific anti-murine IgG HRP (eBioscience, San Diego CA), and for multiplex bead-based assay with anti-mouse IgG (Fc-specific) F(ab′)2 PE (Jackson ImmunoResearch, West Grove PA). Data were acquired on a Magpix instrument (Luminex) and reported as mean fluorescence intensity (MFI) values, as previously described (Pelzek et al., 2017; Pelzek et al., 2018a; Radke et al., 2018). Plasma zonulin were quantitated with a commercial ELISA Kit. […]
(§3) Direct binding ELISA. […] Binding was detected with goat anti mouse IgG HRP conjugated at 1:10,000 (Jackson ImmunoResearch), then TMB substrate was added to develop the plate.

[3] = tested on: extract of Lupus RG strain S107-48; assay: Immunoblot, S107-48 extract; assay type: binding, Ruminococcus gnavus
Protocol: (§4) LPS from a Pseudomonas species.
(§5) In this assay, LG or nuclease-treated RG strain extracts were precoated overnight onto the well, then after blocking with bovine serum albumin, the mAbs, or isotype control at 1 μg/ml were incubated for 4 hours, then washed and developed (see below-described methods) (FIG. 15A). Immunoblot with mAb 33.2.3 (FIG. 15B) and immunoblot with 34.2.2 mAb (FIG. 15C), detect antigenically related LG oligobands in extracts of R. gnavus strains isolated from active Lupus nephritis strains. In each panel is shown samples of purified lipoglycan from the Lupus S47-18 strain, and the RG2 strain of R. gnavus. At left, extracts of whole bacteria are shown for the RG1 strain (from a healthy donor), and the Lupus-derived strains; S107-48, S107-86, S47-18, and for the RG2 strain.
(§6) To generate RG-specific monoclonal antibodies, 10 BALB/c mice were immunized with extract of the (CC55_001C), termed RG2 strain, emulsified in complete Freund's adjuvant and then boosted with lipoglycan (LG) purified from the Lupus S47-18 strain emulsified in incomplete Freund's adjuvant. The spleen from the mouse with the strongest post-immunization was fused with the NS-1 myeloma cells.
(§7) Immunoblotting. […]

[4] = tested on: bacterial extract of Lupus strain S107-48; assay: Direct binding ELISA, S107-48 bacterial extract; design: species or system Ruminococcus gnavus; details: extract coated on ELISA plate
Protocol: as §1, §2, §3

[5] = tested on: purified LG from RG2 (RG2-LG); assay: Immunoblot, purified lipoglycan from RG2 strain; assay type: binding, Ruminococcus gnavus
Protocol: as §4, §5
(§8) Immunoblotting. Electrophoretic separation used Bis-Tris mini gels (Novex, Thermo Fisher) with bacterial extracts loaded at the same concentration, then transferred to membranes, which were incubated with sera diluted at 1:100, and incubated overnight at 4° C. For detection, anti-human IgG biotin conjugated (Jackson ImmunoResearch Labs, USA) was added and developed by IRDye® 800CW Streptavidin (LI-COR®).

[6] = tested on: bacterial extract of Lupus strain S107-86; assay: Direct binding ELISA, S107-86 bacterial extract; design: species or system Ruminococcus gnavus; details: extract coated on ELISA plate
Protocol: as §5
(§9) Assays of antigen-reactive IgG antibodies. A custom multiplex bead-based array for the Magpix platform (Luminex, Austin TX) was created by coupling a variety of highly purified thymic native DNAs, purified cell wall lipoglycan (LG) from the RG2 strain (i.e., IgG anti-RG2 LG (formerly termed LG3) (Azzouz et al., 2019)), and the Lupus RG strain S47-18 (i.e., IgG anti-S47-18 strain LG), recombinant S. aureus proteins, endotoxins, and other bacterial antigens and control ligands, to individual microspheres, adapting the manufacturer's protocol and previous reports (Pelzek et al., 2017; Pelzek et al., 2018b; Radke et al., 2018). For antigen-reactive IgG detection, 1,000 microspheres per analyte per well were premixed, sonicated, and then diluted with addition of 100 μl of serum, as indicated. For ELISA bound IgG antibodies were detected with Fc-gamma-specific anti-murine IgG HRP (eBioscience, San Diego CA), and for multiplex bead-based assay with anti-mouse IgG (Fc-specific) F(ab′)2 PE (Jackson ImmunoResearch, West Grove PA). Data were acquired on a Magpix instrument (Luminex) and reported as mean fluorescence intensity (MFI) values, as previously described (Pelzek et al., 2017; Pelzek et al., 2018a; Radke et al., 2018). Plasma zonulin were quantitated with a commercial ELISA Kit. (MyBioSource, San Diego CA.).
(§10) Direct binding ELISA. To detect the reactivity of the murine monoclonal antibodies (mAb) […] and mAb 34.2.2 with the different RG strains, the ELISA plates were coated with the bacterial extracts from RG2, S47-18, S107-48, S107-86, RG1 as well as with the purified lipoglycan from the strains RG2 and S47-18. Next, the murine monoclonal antibodies were added at two concentrations (at 100 ng/ml and 25 ng/ml) in duplicate, incubated for 2 h at RT. Binding was detected with goat anti mouse IgG HRP conjugated at 1:10,000 (Jackson ImmunoResearch), then TMB substrate was added to develop the plate.

extract of RG1 strain = assay: Immunoblot, RG1 extract; assay type: binding, Ruminococcus gnavus; details: strain from a healthy donor, lacks the lipoglycan
Protocol: as §4, §5, §6, §7

[7] = tested on: extract of Lupus RG strain S107-86; assay: Immunoblot, S107-86 extract; assay type: binding, Ruminococcus gnavus
Protocol: as §5, §8

[8] = tested on: bacterial extract of the RG2 strain (CC55_001C); assay: Direct binding ELISA, RG2 bacterial extract; design: species or system Ruminococcus gnavus; details: extract coated on ELISA plate
Protocol: as §5, §9, §10

[9] = tested on: purified LG from the S47-18 strain; assay: Immunoblot, purified lipoglycan from S47-18 strain; assay type: binding, Ruminococcus gnavus
Protocol: as §5, §8

[10] = tested on: purified LG from the S47-18 strain; assay: Direct binding ELISA, purified lipoglycan from S47-18 strain; design: species or system Ruminococcus gnavus; details: antigen coated on ELISA plate
Protocol: as §1, §2, §3

[11] = tested on: extract of Lupus RG strain S47-18; assay: Immunoblot, S47-18 extract; assay type: binding, Ruminococcus gnavus
Protocol: as §4, §5, §6, §7

[12] = tested on: bacterial extract of Lupus strain S47-18; assay: Direct binding ELISA, S47-18 bacterial extract; design: species or system Ruminococcus gnavus; details: extract coated on ELISA plate
Protocol: as §5, §9, §10

[13] = tested on: purified LG from the RG2 strain; assay: Direct binding ELISA, purified lipoglycan from RG2 strain; design: species or system Ruminococcus gnavus; details: antigen coated on ELISA plate
Protocol: as §5, §9, §10

[14] = tested on: extract of the RG2 strain; assay: Immunoblot, RG2 extract; assay type: binding, Ruminococcus gnavus
Protocol: as §4, §5, §6, §7

Molecule | ELISA reactivity with RG1 type strain extract [2] | Immunoblot reactivity with LG oligobands in S107-48 extract [3] | ELISA reactivity with extract of Lupus strain S107-48 [4] | Immunoblot reactivity with purified LG from RG2 strain [5] | ELISA reactivity with extract of Lupus strain S107-86 [6] | Immunoblot reactivity with RG1 extract (extract of RG1 strain) | Immunoblot reactivity with LG oligobands in S107-86 extract [7] | ELISA reactivity with extract of RG2 strain [8] | Immunoblot reactivity with purified LG from S47-18 strain [9] | ELISA reactivity with purified LG from S47-18 strain [10] | Immunoblot reactivity with LG oligobands in S47-18 extract [11] | ELISA reactivity with extract of Lupus strain S47-18 [12] | ELISA reactivity with purified LG from RG2 strain [13] | Immunoblot reactivity with LG oligobands in RG2 extract [14] | also measured
larazotide acetate |  |  |  |  |  |  |  |  |  |  |  |  |  |  | Gut barrier function (plasma FD4 after challenge), before vs after treatment ([1]; Lupus S47-18 strain colonized mice, p=0.01): normalized; Gut barrier function (plasma FD4 after challenge), before vs after treatment ([1]; Lupus S107-48 strain colonized mice, p=0.01): normalized; Gut barrier function (plasma FD4 after challenge), before vs after treatment ([1]; RG2 strain colonized mice, p=0.03): normalized
B1 | non-reactive | recognized oligoband antigen | reactive | bound | reactive | no reactivity | recognized oligoband antigen | reactive | bound | strongly react | recognized oligoband antigen | reactive | strongly react | recognized oligoband antigen | ELISA reactivity with extract of Lupus strain S107-86 ([6]; listed as 33.2.3): reactivity; ELISA reactivity with extract of RG2 strain ([8]; listed as 33.2.3): reactivity; ELISA reactivity with extract of Lupus strain S47-18 ([12]; listed as 33.2.3): reactivity; ELISA reactivity with purified LG from RG2 strain ([13]; listed as 33.2.3): reactivity
B2 | non-reactive | recognized oligoband antigen | reactive | bound | reactive | no reactivity | recognized oligoband antigen | reactive | bound | strongly react | recognized oligoband antigen | reactive | strongly react | recognized oligoband antigen | ELISA reactivity with extract of Lupus strain S107-86 ([6]; listed as 34.2.2): reactivity; ELISA reactivity with extract of RG2 strain ([8]; listed as 34.2.2): reactivity; ELISA reactivity with extract of Lupus strain S47-18 ([12]; listed as 34.2.2): reactivity; ELISA reactivity with purified LG from RG2 strain ([13]; listed as 34.2.2): reactivity
